Biological target: the molecule itself
Assay: crystal structure

B1: YukC413.strep (domain or fragment, B. subtilis 168, UniProt P71070 1-413, looked up)
chain: MSGEQKSYLENQLEAVAEKTDAGYTFTFQREKIKLLDGLEANVIKDINPFFHKEIDVTDDEVIITIQPPSSYKAFRFMKAKDKKSKWQFAYQLVQAVQQHNLSRLNLIVAPENIVFDKGLTPYFLHYGVKESIPPYERDEERVWQELKAAAALAVDGAFAFEDYLKFNETLTFSAEAKAILDAESYDDLLELIQTHIDELEAKAKTYIHIPRKKWNIQRYIGLGLIVLLVPALIYSMYALFFAQPKHQAIVDSNRAFLNKQYSEVISTLSKYDAESLPESVQYQLATSYVEVENLGSAKTKNIENNLVTLQSDPQHFLYWIDYGRGEYKEAISIGRKLEYNDYIYFALAKYKQQLLSEDTNDEDIQKELDSVNSELEKAQKERQENKQSNSETSLVDTSEEQTQTDEEKQAEE
  stoichiometry N: 2

From paper doi:10.1101/2020.05.09.085852 (bioRxiv, 2020)
